Source: patent publication US20140127777A1 (CALIFORNIA INSTITUTE OF TECHNOLOGY, published 2014)

Columns and labels:
[1] = molecular target: the molecule itself; assay: CD thermal unfolding, global two-state fit of the monomer to dimer transition, 1 M standard state
Procedure: Circular Dichroism (CD) Analysis. CD spectra were recorded on an Aviv 62DS spectropolarimeter (Lakewood, N.J.) in PBS buffer, pH 7.4. All peptide concentrations were determined by amino acid analysis of a stock solution (5 mg/ml). Experiments were performed in a rectangular cell with pathlength of 1 cm for low concentration samples and pathlength of 1 mm for high concentration samples. Spectra were scanned from 250 nm to 200 nm with data taken every 1 nm. The temperature of the solution was maintained by a thermostatically controlled cuvette holder (HP model 89101A). Temperature scans were performed from 0° C. to 100° C. in 1° C. steps. Three scans were performed on a single sample and averaged. Each data point was collected after 30 seconds of thermal equilibration at the desired temperature. Urea titration scans were performed manually starting with the 8 M concentrated sample followed by serial dilution to the desired urea concentration. At each concentration, the sample was allowed to equilibrate for 5 min before recording the CD signal.

[2] = molecular target: the molecule itself; assay: CD thermal unfolding, global two-state fit of the monomer to dimer transition; difference against A1-WT at 37 °C

Protein | ΔG° (37° C.) [1] [kcal/mol] | ΔΔG° [2] [kcal/mol]
A1-WT (designed binder, Expressed in E. coli from pQE-A1 with an N-terminal His-tag; Forms dimeric coiled coils; entered as the single chain; also called wild-type A1) MRGSHHHHHHGSMASGDLENEYAQLEREVRSLEDEAAELEQKVSRLKNEIEDLAEIGDLNNTSGIRRPAAKLN | -10.7 | 
FA1-92 (designed binder, leucines (eight per chain) replaced by 5,5,5-trifluoroleucine to 92% by amino acid analysis; mixed population of (2S,4S) and (2S,4R) diastereomers, Expressed in an E. coli leucine auxotroph in medium with trifluoroleucine; The sample is heterogeneous; its main MALDI peak of 8736 corresponds to 8 substitutions; also called 92% fluorinated A1) MRGSHHHHHHGSMASGDLENEYAQLEREVRSLEDEAAELEQKVSRLKNEIEDLAEIGDLNNTSGIRRPAAKLN | -13.1 | -2.4
